From patent publication US20200270360A1 (ANGIEX, published 2020)

T1: human TM4SF1 (transmembrane-4 L six family member-1) (human, UniProt P30408 1-202)
T1 construct: also called hTM4SF1
T1 sequence: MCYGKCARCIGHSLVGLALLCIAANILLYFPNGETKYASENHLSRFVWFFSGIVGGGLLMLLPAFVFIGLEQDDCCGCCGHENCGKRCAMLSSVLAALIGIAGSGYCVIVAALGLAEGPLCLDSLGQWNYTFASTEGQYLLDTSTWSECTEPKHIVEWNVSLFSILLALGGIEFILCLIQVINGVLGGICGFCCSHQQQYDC


What was measured:
[1] = molecular target: T1, human TM4SF1 (transmembrane-4 L six …); test: flow cytometry on MDA-MB-468 and HLMEC cells
[2] = molecular target: T1, human TM4SF1 (transmembrane-4 L six …); test: flow cytometry (MFI) on HUVEC

Binder	concentration that saturates cell surface TM4SF1 binding [1] [ng/mL]	EC50 [2] [nM]
anti-TM4SF1 antibody AGX-A01 (antibody, V domains shown, also called 8G4; AGX-01) VH: EVILVESGGGLVKPGGSLKLSCAASGFTFSSFAMSWVRQTPEKRLEWVATISSGSIYIYYTDGVKGRFTISRDNAKNTVHLQMSSLRSEDTAMYYCARRGIYYGYDGYAMDYWGQGTSVTVS VL: AVVMTQTPLSLPVSLGDQASISCRSSQSLVHSNGNTYLHWYMQKPGQSPKVLIYKVSNRFSGVPDRFSGSGSGTDFTLKISRVEADDLGIYFCSQSTHIPLAFGAGTKLELK	10000	–
humanized mutated (hm) AGX-A07 H2L5 V1 (antibody, human IgG1, kappa, V domains shown, Full heavy and light chains) VH: EVQLVQSGAEVKKPGASVKVSCKASGYTFTNYGVKWVRQAPGQGLEWMGWINTYTGNPIYAADFKGRVTMTTDTSTSTAYMELRSLRSDDTAVYYCVRFQYGDYRYFDVWGQGTLVTVSS VL: EIVLTQSPATLSLSPGERATLSCRANSGISFINWYQQKPGQAPRLLIYGTANLASGIPARFSGSGSGRDFTLTISSLEPEDFAVYYCQQWSSNPLTFGGGTKVEIKR	–	1.58
humanized AGX-A07 H2L5 (antibody, human IgG1, kappa, V domains shown, Full heavy and light chains; also called h AGX-A07 H2L5; hAGX-A07 H2L5) VH: QVQLVQSGAEVKKPGASVKVSCKASGYTFTNYGVKWVRQAPGQDLEWMGWINTYTGNPIYAADFKGRVTMTTDTSTSTAFMELRSLRSDDTAVYYCVRFQYGDYRYFDVWGQGTLVTVSS VL: EIILTQSPATLSLSPGERATLSCRANSGISFINWYQQKPGQAPRLLIYGTANLASGIPARFGGSGSGRDFTLTISSLEPEDFAVYYCQQWSSNPLTFGGGTKVEIKR	–	1.53
humanized mutated (hm) AGX-A07 H2L5 V2 (antibody, human IgG1, kappa, V domains shown, Full heavy and light chains; also called AGX-A07 H2v1L5v2) VH: EVQLVQSGAEVKKPGASVKVSCKASGYTFTNYGVKWVRQAPGQGLEWMGWINTYTGNPIYAADFKGRVTMTTDTSTSTAYMELRSLRSDDTAVYYCVRFQYGDYRYFDVWGQGTLVTVSS VL: EIVLTQSPATLSLSPGERATLSCRAQSGISFINWYQQKPGQAPRLLIYGTANLASGIPARFSGSGSGRDFTLTISSLEPEDFAVYYCQQWSSNPLTFGGGTKVEIKR	–	1.64
humanized mutated (hm) AGX-A07 H2L5 V3 (antibody, human IgG1, kappa, V domains shown, Full heavy and light chains) VH: EVQLVQSGAEVKKPGASVKVSCKASGYTFTNYGVKWVRQAPGQGLEWMGWINTYTGNPIYAADFKGRVTMTTDTSTSTAYMELRSLRSDDTAVYYCVRFQYGDYRYFDVWGQGTLVTVSS VL: EIVLTQSPATLSLSPGERATLSCRANSGISFINWYQQKPGQAPRLLIYGTANLASGIPARFSGSGSGRDFTLTISSLEPEDFAVYYCQQYSSNPLTFGGGTKVEIKR	–	4.19
humanized mutated (hm) AGX-A07 H2L5 V4 (antibody, human IgG1, kappa, V domains shown, Full heavy and light chains; also called hm AGX-A07 V4) VH: EVQLVQSGAEVKKPGASVKVSCKASGYTFTNYGVKWVRQAPGQGLEWMGWINTYTGNPIYAADFKGRVTMTTDTSTSTAYMELRSLRSDDTAVYYCVRFQYGDYRYFDVWGQGTLVTVSS VL: EIVLTQSPATLSLSPGERATLSCRAQSGISFINWYQQKPGQAPRLLIYGTANLASGIPARFSGSGSGRDFTLTISSLEPEDFAVYYCQQYSSNPLTFGGGTKVEIKR	–	46.1
humanized AGX-A01 (antibody, human IgG1, kappa, V domains shown, also called h AGX-A01 H1L10; h AGX-A01) VH: EVQLVESGGGLVKPGGSLRLSCAASGFTFSSFAMSWVRQAPGKGLEWVSTISSGSIYIYYTDGVKGRFTISRDNAKNSLYLQMNSLRAEDTAVYYCARRGIYYGYDGYAMDYWGQGTLVTVSS VL: AIVLTQSPGTLSLSPGERATLSCRSSQSLVHSNGNTYLHWYMQKPGQAPRVLIYKVSNRFSGIPDRFSGSGSGTDFTLTISRLEPDDFAIYYCSQSTHIPLAFGQGTKLEIKR	–	3.03
